Experimental data published in article PMC9190123 (Molecular pharmaceutics, 2009).
Like-named read-outs stand apart in the source and are kept apart here. Numbered stars: 1 amine (or outer) side, 2 acyl side, 3 side chain; on linkers, the order of the positions; unused ones are H or OH. Square brackets hold non-standard residues; d marks the D form. Side chains are listed from the residue outwards. Peptide text beside a SMILES is read from it. * marks the point of attachment. X1 = N[C@@H](CN*)C(=O)N[C@@H](CC(=O)O)C(=O)N[C@@H](CS)C(=O)O; γGlu = O=C(O)[C@H](CCC(=O)[*:2])N[*:1]; PEG6 = NCCOCCOCCOCCOCCOCCOCCC(=O)O; Dap = NC[C@H](N)C(=O)O; Aoc = NCCCCCCCC(=O)O; CO = O=C([*:1])[*:2]

Assays:
[1] = molecular target: PSMA (PSMA-expressing LNCaP cells) (Homo sapiens, UniProt Q04609); test: LNCaP cell binding study; conditions: for affinity for PSMA / LNCaP cells (in words): LNCaP cells in culture; for Kd: PSMA-positive LNCaP cells in culture, 1 h at 37 °C; for competitive inhibition of binding by excess PMPA: LNCaP cells, 100-fold excess PMPA
Chain of PSMA (PSMA-expressing LNCaP cells) (Q04609 whole entry): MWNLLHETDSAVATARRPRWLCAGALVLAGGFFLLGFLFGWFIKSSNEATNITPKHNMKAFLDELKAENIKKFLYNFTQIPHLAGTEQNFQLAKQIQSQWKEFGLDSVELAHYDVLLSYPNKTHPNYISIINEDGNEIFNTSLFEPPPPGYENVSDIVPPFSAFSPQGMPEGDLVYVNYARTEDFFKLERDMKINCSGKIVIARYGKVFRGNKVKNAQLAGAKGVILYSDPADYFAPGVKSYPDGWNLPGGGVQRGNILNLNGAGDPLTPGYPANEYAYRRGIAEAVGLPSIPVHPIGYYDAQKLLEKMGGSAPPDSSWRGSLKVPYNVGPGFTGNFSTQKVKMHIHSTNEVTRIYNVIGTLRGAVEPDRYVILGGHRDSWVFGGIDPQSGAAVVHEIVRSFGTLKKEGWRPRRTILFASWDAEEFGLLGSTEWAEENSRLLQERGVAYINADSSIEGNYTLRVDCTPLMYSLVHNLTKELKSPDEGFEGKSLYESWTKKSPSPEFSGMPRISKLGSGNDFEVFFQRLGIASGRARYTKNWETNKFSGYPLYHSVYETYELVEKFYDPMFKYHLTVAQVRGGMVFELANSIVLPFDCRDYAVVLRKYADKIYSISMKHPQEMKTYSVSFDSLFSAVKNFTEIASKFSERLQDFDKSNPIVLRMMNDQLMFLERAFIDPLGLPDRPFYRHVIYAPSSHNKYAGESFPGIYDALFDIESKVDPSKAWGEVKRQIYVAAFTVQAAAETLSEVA

[2] = system: LNCaP tumor xenografts; assay type: in vivo, athymic nu/nu mice; conditions: for tumor-specific accumulation by whole-body radioimaging: 4 h after ip injection; for accumulation in PSMA-positive tumors by γ-counting (in words): tissue biodistribution, 4 h; for Tumor:Tissue blood / Tumor:Tissue heart / Tumor:Tissue liver / Tumor:Tissue lung / Tumor:Tissue muscle / Tumor:Tissue skin / Tumor:Tissue spleen: mouse, in vivo, ip
[3] = assay type: in vivo, athymic nu/nu mice; conditions: mouse, ip
[4] = system: PSMA-negative human tumor xenografts; conditions: two PSMA-negative human tumor xenografts; cited from earlier work
[5] = male, athymic nu/nu, in vivo, 67 nmol, total radioactivity, tumor uptake, average % ID/g tissue

SMILES | affinity for PSMA / LNCaP cells (in words) [1] | Kd [1] [nM] | tumor-specific accumulation by whole-body radioimaging ([2]; radioimaging) | accumulation in PSMA-positive tumors by γ-counting (in words) [2] | competitive inhibition of binding by excess PMPA [1] | tissue uptake at 4 h [3, 5] [%ID/g] | tissue uptake at 4 h ([3]; in vivo, % ID/g kidney) [%ID/g] | Tumor:Tissue blood [2] | Tumor:Tissue heart [2] | Tumor:Tissue liver [2] | Tumor:Tissue lung [2] | Tumor:Tissue muscle [2] | Tumor:Tissue skin [2] | Tumor:Tissue spleen [2] | internalization by LNCaP cells ([1]; 1 h at 4 °C vs 37 °C) | tissue uptake at 4 h ([3]; kidney, 67 nmol, % ID/g kidney, kidney, 4 h after ip injection) [%ID/g] | LNCaP tumor uptake with coinjection of excess PMPA ([2]; competition with 100-fold excess PMPA, radioimaging) | uptake in PSMA-negative tumors [4]
N[C@@H](CNC(=O)[C@H](Cc1ccccc1)NC(=O)CCOCCOCCOCCOCCOCCOCCNC(=O)CC[C@H](NC(=O)N[C@@H](CCC(=O)O)C(=O)O)C(=O)O)C(=O)N[C@@H](CC(=O)O)C(=O)N[C@@H](CS)C(=O)O [compound 8] (H-[Dap]([Phe-PEG6-γGlu-CO-Glu])-Asp-Cys-OH) | weak affinity | 338 | not observed | did not accumulate | – | – | – | – | – | – | – | – | – | – | – | – | – | –
N[C@@H](CNC(=O)[C@H](CCC(=O)O)NC(=O)[C@H](Cc1ccccc1)NC(=O)CCCCCCCNC(=O)CC[C@H](NC(=O)N[C@@H](CCC(=O)O)C(=O)O)C(=O)O)C(=O)N[C@@H](CC(=O)O)C(=O)N[C@@H](CS)C(=O)O [compound 6] (H-[Dap]([Glu-Phe-Aoc-γGlu-CO-Glu])-Asp-Cys-OH) | somewhat lower affinities | 31 | accumulated predominantly in the PSMA-positive LNCaP tumors | – | nearly quantitative competition | 9.8 ± 2.4 | 42.9 | 51.4 | 93.3 | 11.6 | 18.9 | 74.2 | 28.7 | 4.5 | – | – | – | –
N[C@@H](CNC(=O)CC[C@H](NC(=O)N[C@@H](CCC(=O)O)C(=O)O)C(=O)O)C(=O)N[C@@H](CC(=O)O)C(=O)N[C@@H](CS)C(=O)O [compound 3] (H-[Dap]([γGlu-CO-Glu])-Asp-Cys-OH) | weak affinity | 176 | not observed | did not accumulate | – | – | – | – | – | – | – | – | – | – | – | – | – | –
N[C@@H](CNC(=O)[C@H](Cc1ccccc1)NC(=O)[C@H](Cc1ccccc1)NC(=O)CCCCCCCNC(=O)CC[C@H](NC(=O)N[C@@H](CCC(=O)O)C(=O)O)C(=O)O)C(=O)N[C@@H](CC(=O)O)C(=O)N[C@@H](CS)C(=O)O [compound 5] (H-[Dap]([Phe-Phe-Aoc-γGlu-CO-Glu])-Asp-Cys-OH) | most avid interaction | 13.8 ± 3.9 | accumulated predominantly in the PSMA-positive LNCaP tumors | – | nearly quantitative competition | 9.8 ± 2.4 | – | 36.4 | 80.9 | 20.2 | 35.2 | 78.9 | 30.7 | 18.4 | internalization of the DUPA conjugate at physiological temperature | 37.8 | eliminated LNCaP tumor uptake | no uptake
N[C@@H](CNC(=O)[C@H](Cc1ccccc1)NC(=O)[C@H](CCC(=O)O)NC(=O)CC[C@H](NC(=O)N[C@@H](CCC(=O)O)C(=O)O)C(=O)O)C(=O)N[C@@H](CC(=O)O)C(=O)N[C@@H](CS)C(=O)O [compound 4] (H-[Dap]([Phe-Glu-γGlu-CO-Glu])-Asp-Cys-OH) | somewhat lower affinities | 60 | accumulated predominantly in the PSMA-positive LNCaP tumors | – | nearly quantitative competition | 9.8 ± 2.4 | 3.4 | 91.7 | 112.2 | 62.9 | 101.8 | 115.1 | 92.3 | 66.7 | – | – | – | –
N[C@@H](CNC(=O)[C@H](Cc1ccccc1)NC(=O)[C@H](Cc1ccccc1)NC(=O)CNC(=O)[C@H](CCC(=O)O)NC(=O)[C@H](Cc1ccccc1)NC(=O)CC[C@H](NC(=O)N[C@@H](CCC(=O)O)C(=O)O)C(=O)O)C(=O)N[C@@H](CC(=O)O)C(=O)N[C@@H](CS)C(=O)O [compound 7] ({Glu-CO-γGlu}-FEGFF-X1) | – | – | accumulated predominantly in the PSMA-positive LNCaP tumors | – | – | – | – | – | – | – | – | – | – | – | – | – | – | –
